The values that follow come from patent publication US20070196872A1.

For one assay, the target named is Frizzled4 (UniProt Q9ULV1). Description: cell-based or functional assay.
A further assay addresses LRP5 (Zmax1) (UniProt O75197). Description: cell-based or functional assay.

A value given as a limit tells only on which side of the number the result lay.

Norrin, sequence (Q00604 25-133 limits assumed): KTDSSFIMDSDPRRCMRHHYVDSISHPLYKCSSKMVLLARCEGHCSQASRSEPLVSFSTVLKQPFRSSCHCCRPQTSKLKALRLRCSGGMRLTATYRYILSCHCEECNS
UniProt Q9ULV1, sequence (Q9ULV1 37-537 limits assumed): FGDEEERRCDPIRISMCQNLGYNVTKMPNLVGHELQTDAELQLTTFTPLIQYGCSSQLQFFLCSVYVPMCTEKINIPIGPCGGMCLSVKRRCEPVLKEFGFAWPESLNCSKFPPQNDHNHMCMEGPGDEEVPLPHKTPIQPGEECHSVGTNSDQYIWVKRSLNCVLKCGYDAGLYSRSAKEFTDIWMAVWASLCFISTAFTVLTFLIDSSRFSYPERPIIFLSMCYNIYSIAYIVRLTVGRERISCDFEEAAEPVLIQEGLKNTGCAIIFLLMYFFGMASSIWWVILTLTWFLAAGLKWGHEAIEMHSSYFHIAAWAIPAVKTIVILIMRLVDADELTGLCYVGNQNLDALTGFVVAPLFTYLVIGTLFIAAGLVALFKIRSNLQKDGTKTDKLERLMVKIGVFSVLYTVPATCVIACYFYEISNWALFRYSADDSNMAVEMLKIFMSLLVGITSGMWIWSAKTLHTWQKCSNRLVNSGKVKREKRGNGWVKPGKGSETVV
UniProt O75197, sequence (O75197 32-1615 limits assumed): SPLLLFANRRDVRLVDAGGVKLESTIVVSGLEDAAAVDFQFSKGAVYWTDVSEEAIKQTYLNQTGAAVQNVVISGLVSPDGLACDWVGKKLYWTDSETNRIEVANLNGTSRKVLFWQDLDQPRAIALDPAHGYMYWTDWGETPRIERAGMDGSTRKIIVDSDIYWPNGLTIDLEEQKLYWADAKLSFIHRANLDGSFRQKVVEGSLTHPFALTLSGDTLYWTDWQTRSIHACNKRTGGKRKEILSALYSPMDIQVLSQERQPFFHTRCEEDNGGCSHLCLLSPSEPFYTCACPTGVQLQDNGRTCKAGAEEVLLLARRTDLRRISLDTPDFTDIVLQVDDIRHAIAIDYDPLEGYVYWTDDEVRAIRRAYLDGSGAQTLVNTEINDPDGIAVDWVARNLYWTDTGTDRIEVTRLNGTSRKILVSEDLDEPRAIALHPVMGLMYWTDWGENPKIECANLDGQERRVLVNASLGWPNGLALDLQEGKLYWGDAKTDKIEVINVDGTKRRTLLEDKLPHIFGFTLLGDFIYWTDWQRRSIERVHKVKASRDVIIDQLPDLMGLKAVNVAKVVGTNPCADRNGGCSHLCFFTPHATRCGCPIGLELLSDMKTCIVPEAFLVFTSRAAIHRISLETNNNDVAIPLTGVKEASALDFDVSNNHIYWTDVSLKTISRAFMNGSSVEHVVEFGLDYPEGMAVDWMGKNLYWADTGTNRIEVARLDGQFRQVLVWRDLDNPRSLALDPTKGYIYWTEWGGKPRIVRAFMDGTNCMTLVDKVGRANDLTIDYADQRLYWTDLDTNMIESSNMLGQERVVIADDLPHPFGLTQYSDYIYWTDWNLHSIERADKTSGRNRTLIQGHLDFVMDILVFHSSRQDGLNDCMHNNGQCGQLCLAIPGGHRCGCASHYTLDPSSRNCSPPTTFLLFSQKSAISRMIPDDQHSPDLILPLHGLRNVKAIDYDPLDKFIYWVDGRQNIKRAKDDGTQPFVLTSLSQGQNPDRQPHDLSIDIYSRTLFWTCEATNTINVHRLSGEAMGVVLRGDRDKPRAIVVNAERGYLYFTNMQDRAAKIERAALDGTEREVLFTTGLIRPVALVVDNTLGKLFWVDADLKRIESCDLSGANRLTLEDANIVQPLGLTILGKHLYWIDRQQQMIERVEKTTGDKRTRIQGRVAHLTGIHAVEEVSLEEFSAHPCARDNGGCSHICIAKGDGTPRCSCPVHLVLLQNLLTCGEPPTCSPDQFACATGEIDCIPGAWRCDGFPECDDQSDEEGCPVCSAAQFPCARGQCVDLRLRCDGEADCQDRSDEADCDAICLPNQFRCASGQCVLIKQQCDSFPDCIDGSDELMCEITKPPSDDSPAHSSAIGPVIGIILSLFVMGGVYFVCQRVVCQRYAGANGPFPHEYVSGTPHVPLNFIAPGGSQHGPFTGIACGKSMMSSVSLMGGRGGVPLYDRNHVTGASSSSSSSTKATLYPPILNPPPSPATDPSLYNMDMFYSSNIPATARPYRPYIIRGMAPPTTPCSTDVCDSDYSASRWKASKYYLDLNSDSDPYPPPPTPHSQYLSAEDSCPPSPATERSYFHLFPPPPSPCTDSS

“Norrin (from UniProt Q00604 25-133) (ligand)”: in the assay with Frizzled4, the TCF activity, further enhancement when Fz4, LRP5 and Norrin were all co-transfected in U20S cells is 2 to 6 fold; the TCF response (TCF-luci to renilla), Norrin and Fz4 co-transfected in HEK-293A cells was 6 fold; the TCF-signal, LRP5 co-transfected along with Fz4 and Norrin in HEK-293 cells was below 16 fold; the ratio of TCF-luci to renilla luminescence, Norrin cDNA alone transfected in U20S cells (endogenous Fz4 inferred) fell in the range of 2 to 3 fold. For the same substance, the ratio of TCF-luci to renilla signal, Fz4 and Norrin co-transfected in U20S cells in the assay with Frizzled4 was determined as 15 fold. In addition, the ratio of TCF-luci to renilla luminescence, Norrin and LRP5 co-transfected in U20S cells with LRP5 (Zmax1) came to 6 fold.
